Values quoted from earlier work in publication PMC6126569.
Values joined by “and” are separate entries in the source; they are usually repeats but may differ in a detail not shown here. Equal entries are not always repeated.

Target: Bac7 (Bos taurus) (UniProt P19661)
Experiment: SRCD

Bac7 (Bos taurus), sequence (P19661 131-189): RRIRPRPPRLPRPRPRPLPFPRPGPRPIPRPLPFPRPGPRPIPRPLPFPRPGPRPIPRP
SbmA, sequence (P0AFY6 whole entry): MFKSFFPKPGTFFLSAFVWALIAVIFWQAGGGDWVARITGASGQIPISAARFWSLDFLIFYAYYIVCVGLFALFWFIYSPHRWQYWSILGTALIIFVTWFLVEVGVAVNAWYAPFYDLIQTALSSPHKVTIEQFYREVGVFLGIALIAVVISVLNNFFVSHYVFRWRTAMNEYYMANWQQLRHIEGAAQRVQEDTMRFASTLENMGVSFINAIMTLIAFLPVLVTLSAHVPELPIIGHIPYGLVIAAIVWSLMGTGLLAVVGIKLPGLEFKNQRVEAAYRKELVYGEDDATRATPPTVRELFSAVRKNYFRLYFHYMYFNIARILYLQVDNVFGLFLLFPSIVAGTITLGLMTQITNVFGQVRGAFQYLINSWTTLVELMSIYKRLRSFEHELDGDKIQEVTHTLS

Kd: 260 nM and 280 nM
Substance: SbmA (from UniProt P0AFY6)
